Data: patent publication US20090318349A1 (Novo Nordisk, published 2009)
Numbering of substitutions follows the chain as printed.

B1: AlaPro-mTGase from S. mobaraensis (enzyme)
chain: APDSDDRVTPPAEPLDRMPDPYRPSYGRAETVVNNYIRKWQQVYSHRDGRKQQMTEEQREWLSYGCVGVTWVNSGQYPTNRLAFASFDEDRFKNELKNGRPRSGETRAEFEGRVAKESFDEEKGFQRAREVASVMNRALENAHDESAYLDNLKKELANGNDALRNEDARSPFYSALRNTPSFKERNGGNHDPSRMKAVIYSKHFWSGQDRSSSADKRKYGDPDAFRPAPGTGLVDMSRDRNIPRSPTSPGEGFVNFDYGWFGAQTEADADKTVWTHGNHYHAPNGSLGAMHVYESKFRNWSEGYSDFDRGAYVITFIPKSWNTAPDKVKQGWP
B2: GlyPro-mTGase from S. ladakanum (enzyme)
chain: GPDSDERVTPPAEPLDRMPDPYRPSYGRAETIVNNYIRKWQQVYSHRDGRKQQMTEEQREWLSYGCVGVTWVNSGQYPTNRLAFAFFDEDKYKNELKNGRPRSGETRAEFEGRVAKDSFDEAKGFQRARDVASVMNKALENAHDEGAYLDNLKKELANGNDALRNEDARSPFYSALRNTPSFKDRNGGNHDPSKMKAVIYSKHFWSGQDRSGSSDKRKYGDPEAFRPDRGTGLVDMSRDRNIPRSPTSPGESFVNFDYGWFGAQTEADADKTVWTHGNHYHAPNGSLGAMHVYESKFRNWSDGYSDFDRGAYVVTFVPKSWNTAPDKVKQGWP
B3: GlyPro-mTGase_Y75A from S. ladakanum (enzyme)
chain: B2 chain with Y77A
B4: GlyPro-mTGase_Y75F from S. ladakanum (enzyme)
chain: B2 chain with Y77F
B5: GlyPro-mTGase_Y75N from S. ladakanum (enzyme)
chain: B2 chain with Y77N
B6: GlyPro-mTGase_Y62H_Y75F from S. ladakanum (enzyme)
chain: B2 chain with Y64H, Y77F, K329T
B7: GlyPro-mTGase_Y62H_Y75N from S. ladakanum (enzyme)
chain: B2 chain with Y64H, Y77N

Target: wild type human growth hormone (human, UniProt P01241 27-217)
Assay: cell-based or functional assay

Chain of wild type human growth hormone (P01241 27-217): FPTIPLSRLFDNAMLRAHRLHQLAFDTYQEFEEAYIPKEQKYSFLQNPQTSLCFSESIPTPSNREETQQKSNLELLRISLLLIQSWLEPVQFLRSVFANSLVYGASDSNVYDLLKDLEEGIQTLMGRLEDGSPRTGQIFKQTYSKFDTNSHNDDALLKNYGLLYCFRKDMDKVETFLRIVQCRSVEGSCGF

Compared with B1, B2 is higher in “RS (relative selectivity)” value: 1 for the first, 1.8 for the second.

First: B3
Second: B4
The “RS (relative selectivity)” value of the first is lower: 3 for the first, 5.1 for the second.

First: B5
Second: B6
The “RS (relative selectivity)” value of the first is lower: 3.4 for the first, 6.4 for the second.

B7 was tested, and the “RS (relative selectivity)” value was 4.6.

First: B1
Second: B2
The “Selectivity (Q141/Q40), CE” value of the first is lower: 5.7 for the first, 10.3 for the second.

Going from B3 to B4, the “Selectivity (Q141/Q40), CE” value rises from 17.3 to 29.1.

First: B5
Second: B6
The “Selectivity (Q141/Q40), CE” value of the first is lower: 19.3 for the first, 36.2 for the second.

In the case of B7, the “Selectivity (Q141/Q40), CE” value is reported as 26.3.
